Measured values as given in the DeepSol protein solubility set.

Experiment: soluble on expression in E. coli; label from the status in PepcDB or PDB records

Sequence | soluble on expression in E. coli
MSLQRESLDILKLSQAIKKCDAILIGAGAGLSSAAGLSYSGNRFKKYFNDFITKYHLQDMYSAGFYPYPSLEKYWAYWSRHIYYNRYLEAPKDTYKKLLNLLINKDYFVITTNVDHQFQIAGFIKEKLFYTQGDYGLWQCSKPCHQKTYDNYETVVTMIKQQHDLKIPSSLIPYCPICNAPMTMNLRCDKTFVQDSGWYHAQERYYHFLNKYHYSKIVYLELGVGYNTPGIIKYPFWQLTIENPKAIYACINQDIIDLPSELKKQTIMINDNIHNVLSSLEKLLEGHHHHHH | soluble
MLWPFRWVWWKRVLTSQTRAPAKPNPLTVPPTCTWWSLRKLPNPTKLDDDLKNLLDPNEVRARMLKSFGTENFTQPQPQPQALKTTTPVFGTSSGNLGSVLSGGGYHAGLKHHQSTVTRSTGEWVDR | soluble
MEGGFGSDFGGSGSGKLDPGLIMEQVKVQIAVANAQELLQRMTDKCFRKCIGKPGGSLDNSEQKCIAMCMDRYMDAWNTVSRAYNSRLQRERANM | not soluble
MSLSSKRDIEANTDLNSITYIPTFPEPFERDNSHTTASFVSIQIRLLVASVTEENFLDTEHQIYYLLQRGSFSVYISYWKLLIQLFVNEFEAQQQKRDLNLPFRFDFSNLVHRLLYNLAQELITRTPDTIEKVKELALPLSGKYPIRPLFLSFLNKDNESDSAIIEALNPEVHPIFTTLKDLHRTNMSVSNITQNLFAVENKPNFLTMLSEFLKPLQGETLNDWIALILSEILAPGSQTSNQPSQPWIVQVPNVDVREVIEATEMGTKVNGIIKSLGTNNVNWNRVFNLMSTKFFLNKPVNATLSSLNYLFCILNSGPLVDQFFACDWSLYFKLRLSFLMYQWNYNSECLDLSSLPNIKKINKSIPLTKKSQLSLISVGKLNIELFLSRDEISKNPLFSSFHASFSEAYNNVPEYLAAVLISESKYFSLLVDNKSIIDELLISLVIKTYENNVIAFKELLKLVSKQKVIEVSRGIIASQNAQTINLVQALHDLGILDEVFEKLPIRDSLKLSPTAMHLGYLKFSEYIERNITLKTFVPTLDFIEAQTNIDELDPALKSVKLLNLHSLHSLIYRTANLKLSADERVALNNVIFKALISFPRLINYGYGHDDAIVANGDHAPIPQDVEKKMQTYLQKMYNKEMAIKDIVDILRKLRDSDDSNDQDIFCCIIHAVIAETTFFKEYPLEALATTSVLFGSMILFDLLRGFVLDVAFQIIYTFASESPDSKMFKFAVQALYAFRMRLNEYSPFCKRLLDEIPGLQTQPQIQQILTESAANPNVSEGHHHHHH | soluble
MTKKALSAVILAAGKGTRMYSDLPKVLHTIAGKPMVKHVIDTAHQLGSENIHLIYGHGGDLMRTHLANEQVNWVLQTEQLGTAHAVQQAAPFFKDNENIVVLYGDAPLITKETLEKLIEAKPENGIALLTVNLDNPTGYGRIIRENGNVVAIVEQKDANAEQLNIKEVNTGVMVSDGASFKKWLARVGNNNAQGEYYLTDLIALANQDNCQVVAVQATDVMEVEGANNRLQLAALERYFQNKQASKLLLEGVMIYDPARFDLRGTLEHGKDVEIDVNVIIEGNVKLGDRVKIGTGCVLKNVVIGNDVEIKPYSVLEDSIVGEKAAIGPFSRLRPGAELAAETHVGNFVEIKKSTVGKGSKVNHLTYVGDSEIGSNCNIGAGVITCNYDGANKFKTIIGDDVFVGSDTQLVAPVKVANGATIGAGTTITRDVGENELVITRVAQRHIQGWQRPIKKK | soluble
MHRIMLSGYLKALVDAGILKERRIKPVTLYSVLRRQDMNIYELTGNAIRSSGSKMDGDTALRLLYAILRRPVFLTEVERCGTKKPLNFETIIWERRKDLIRKLAESGIIIPETDMLVVPKDATADNTIDLISTLLGQVIDLKKYTIPEAEKKQKTLDF | not soluble
MNPLRSIQHNITTPPISGGQPLDAVGPQAQQSHPKRISPSQLSQSAHQALERLSANAEHQRLASLVRNALQDGTFQFQSSNHTQVTYKASICLPADTDTVRTDHLINNELTVQARLNDQSEYDIVSAHLHGSSKAISFDVPSPPPAHGSASSVLSERTHLGMSSVLSQDAVDSSSLETPLVSSPDHSRPPSQPKPVHIGSVRRDSGSLVSDNPVVQALLSFVQADQAFPPQAASIAGVQLEMRSRRDIEQALEELKGAFTVEKAQLMSGGSSSERVDEDVNADIHIPLLLKAIERGAGAFGPGALIEIADGGQISAKAFLASCAPTITSNDDVLSEFINQKLKGDDDLQVRLGAQELLHVATKKEFQLGGLAGSIGVSSILGSAWELGASELLKNAIFGKNFSPSQYALQLAGIDSVPPFIIEAMDSFCVLVIIKGMKGELWSMKDLLPKALKAGAISSAMSFPNNVLQYAGFKSRVADLAANSITTEAAIFGAASGIPPEVKESEELMRAGLFQSMKDGVMAHPGEGMDTKETIERMTRHALDIAPGESTAVKSMGLAAIVGMIPLIASSKATGLVSEQILRIFRNAVFNPIEAIALNALALGGRVNVPGLFDSDNAKHARVAQTILARASQHMEAGDREISAEELHQMLAPRSEFLRHVGSAIVNGMNASFEAIPALVRKLGYGEAPLAERIPYQDLAVPDTSRQPAP | not soluble
MGSDKIHHHHHHGMDKLSTKNYHTLLEVINDQEMIASPNTQLDSQVIANSSPFGGEVVTNRSKNIDGYTVEWSNLRSRYSFFRNSIDWNEVYPGSYYSSKNFYEYNRQTKQKVASFYNPAITNYYGGIKNELSELDKMENQVAEVAISFDKPYPYEEVRKMLPSNVNLVWLYVYSETVNEAEGPSGTLPYGFQLSMDDQNEIFDPENDKQHFFETLEKSPLFADNQEGQKFIQQNKNKKVEKLPIWGVMLTGQTKNFKALQNEPFVRGASIGVTAPIVPYIQPEK | not soluble
MGSDKIHHHHHHMREGSIVKLESLINQKYSNLNQTEKEILAFIIENRDFVRKASLSEVAEKSLFSKSAIFRCCKKIGLTGFSQLRYVLTDEKDSEQDSLISVDYLAQTVKSMLWTVNQFKSTNADDIYATLAAAGTIYIYSTGWQQQIMAQQLQRDLYLIGKFAFVFPTGHDEMQLSSTKIKPGDAVIVISYKGMNATIVQLVNNLKLNGVRIVSFTSFRQNRLAQAANFNLYYDIINKTVGIERKTERFFANLTLLIDIFSMGFANYLVAKEERDHEHGEYGQRKSK | not soluble
MLRTEHYAFLPCISRALEERDSLGIRRELRARQQRLSMQQSRSKLGRVCVTGANSPLGQELVGALTRTPDPSLRPDAIGVIGARDPIESHSAGAGLHFPGPGVDFLECAATDLEHYNPRTLFSINDDDLGLRRRSIFRENQVVIDLLRAQGETNEPRSKTRLVLVTLLGCGDSEDAIPSQAFDVLRPLLLELSRVEQYVRESGLPYTIVRPGALEHGDADSRAIVSESKVGFGTIHRSTLAHLLLNVAASEKAVNKTLMALDMNRLLVAAPYVRPFEVWESPPFEVFDL | soluble
MEHSLPPYRLRRSPRAKYLRLLIRPDGIEVVVPTGLSDATVLAFVRQHGGWAQARLEELLARLAKLRQGQAERFPAEGGSVPLEGRETPLFIEETGGSRIRVSLEDQGLRLILPRTCGADRDRYVRDALFGWMKRRLPGRVTELIERHAPLHGLYPRQLRIKSMRTRWGSCGPANDINLNWLLGLAPLSVLEYVVVHELCHIRHRNHSRDFWELVAAHLPDWRQERQWLKAHGGGLIQRFDPAFRLEHHHHHH | soluble
MNEQWMSALPLDNVKDISPVSGGDVNEAFKVTTVEEDIFFLLVQRQRSEAFYAAEIAGLNEFENAGITAPRVIASGEINGDAYLLLSFLEEGSQGSQRELARLVARMHSQYQQDNKFGFRLPHEGADISFDNSWTETWKEIFINRRMDHLQDELLRVGLWKQEDKKMYERVRKVIVDELSNHTSKPSLLHGDLWGGNYMFLTNGQPALFDPAPLYGDREFDIGITTVFGGFTQEFYDEYNQQLPLAKGSQKRIEFYRLYLLMIHLLKFGGMYADSVQRSMKIILELEHHHHHH | soluble
MNTDHERWRTEYAGGTAVAYDDKVVLQGDSARLAGLLQDGGGRAHIYFDGASRGNPGPAAIGWVIVTDDGIVAEGSERIGRATNNQAEYEALIEALAAAADYAFDEAVVKGDSQLIVKQVRGEWDTNDPTLREKRVRVRKLLEEFSEWSLDHVPREINDRADDLANEALDGLEHHHHHH | soluble
MGSDKIHHHHHHAADRPTQPVRTEVYRLERLDSVLLVDLAVDLTGVHLAPDCTVYLFPLLASENTGDSLSLPPIVLNGPQSDLMYRRRRALGTTSGLEKITPYTVLREGDHALPRIHYRTEVPYAAWMDDVKVWMRDTNCNCDARLVPFAMHTEHIPPLVVERVDTIVIHDTIRLASVASGQSTVASDIPLRKKVTRIQAGYEADIYFPTNEMRILPDHELNRASWMHFVNQVDSIEQDNRNSISGVTVTGYSSPEGYTSNNERLAEKRAKALQAFLENKYGERMEVAVEWVGEDWKQFEKDIEVSDLPERNEILSILRTVSDSNQRKSRLKALNKGKTFGILLREYFPKLRRVSCRIRYVK | not soluble
MGSDKIHHHHHHMPNRDSEKLITDGYTTTLLGDELMVCENMKHIRVTSVPSYTEVGMIILCLRGTAKICIFDNIHILAKNELAVILPGQLVSITELSPDFLCNIVVLSRALFDDTLSGFSRFSPLFFVYMRSHYWYELTGEEIERFKLFYGSLSQRAKDPTHFFRRESVLLLLRIFYLDIYNEYYSKSHLMKGGSDMGKSKLAHDFFCLIMQHYREHKDVAFYADKLCITSKYLSMVIKEASGKTAKDWIVEYAILEIKAMLKNSTMNIQEISIKTNFANQSSLGRFFRKHTGMTLTEYRMHR | not soluble
MGSDKIHHHHHHMKAKAAFFDIDGTLYREGLISEVFKKLIKYEIIDEEKWYKEVRPEFEKWDNRKGDYDDYLLKMTEIYVDALNGLSKSQVEFIASQVVNQKGERVYTYTRDRIKWHKERGHKIITISGSPIELVRNMAEKYGFDDYRGAEYLLDENDVYTGEVIPMWDSKSKERAVHELEAKYNIDLGESYAYGDTSGDLTMLKMVGNPVCINPTKELVKEILSAAAVKNKIRIIVERKDMIYKISSRCLECDCEFVL | not soluble
MRGSHHHHHHGSLMPGGKEFYNFYPEYVVGLQWMGDNYVFIEGDDLVFNKANGKSAQTTRFSAADLNALMPEGCKFQTTDAFPSFRTLDAGRGLVVLFTQGGLVGFDMLARKVTYLFDTNEETASLDFSPVGDRVAYVRNHNLYIARGGKLGEGMSRAIAVTIDGTETLVYGQAVHQREFGIEKGTFWSPKGSCLAFYRMDQSMVKPTPIVDYHPLEAESKPLYYPMAGTPSHHVTVGIYHLATGKTVYLQTGEPKEKFLTNLSWSPDENILYVAEVNRAQNECKVNAYDAETGRFVRTLFVETDKHYVEPLHPLTFLPGSNNQFIWQSRRDGWNHLYLYDTTGRLIRQVTKGEWEVTNFAGFDPKGTRLYFESTEASPLERHFYCIDIKGGKTKDLTPESGMHRTQLSPDGSAIIDIFQSPTVPRKVTVTNIGKGSHTLLEAKNPDTGYAMPEIRTGTIMAADGQTPLYYKLTMPLHFDPAKKYPVIVYVYGGPHAQLVTKTWRSSVGGWDIYMAQKGYAVFTVDSRGSANRGAAFEQVIHRRLGQTEMADQMCGVDFLKSQSWVDADRIGVHGWAYGGFMTTNLMLTHGDVFKVGVAGGPVIDWNRYEIMYGERYFDAPQENPEGYDAANLLKRAGDLKGRLMLIHGAIDPVVVWQHSLLFLDACVKARTYPDYYVYPSHEHNVMGPDRVHLYETITRYFTDHL | soluble
MKRIFVQNRELVVPGTLLAQGPYKNGRGTFREGSRIYSTVIGLVDIKGNTIRVIPLEGPYIPEVGDNVIGKIVDVKFSSWVVDIGAPYLANLKIQDFTDEKIDLLRTDLRKFFDIGDIIYGKVKAITEVNNIDLTTKGMPFNGGPLKGGQIVKITPSRVPRVIGRGGSMINMIKKLTMTRIIVGQNGWIWVNGKNEALEKLAIEAILKIDRESHTKGLTDRIKSLLLSRLQELKEKGVIEEIPELEEEPQEETEVNNNDGETRRT | soluble
